In patent US11377503:
Substitutions are numbered along the chain they refer to.

Key:
CD39 mutant 19 = biological target: T1, CD39 mutant 19 (human, UniProt P49961); experiment: FACS
T1 chain: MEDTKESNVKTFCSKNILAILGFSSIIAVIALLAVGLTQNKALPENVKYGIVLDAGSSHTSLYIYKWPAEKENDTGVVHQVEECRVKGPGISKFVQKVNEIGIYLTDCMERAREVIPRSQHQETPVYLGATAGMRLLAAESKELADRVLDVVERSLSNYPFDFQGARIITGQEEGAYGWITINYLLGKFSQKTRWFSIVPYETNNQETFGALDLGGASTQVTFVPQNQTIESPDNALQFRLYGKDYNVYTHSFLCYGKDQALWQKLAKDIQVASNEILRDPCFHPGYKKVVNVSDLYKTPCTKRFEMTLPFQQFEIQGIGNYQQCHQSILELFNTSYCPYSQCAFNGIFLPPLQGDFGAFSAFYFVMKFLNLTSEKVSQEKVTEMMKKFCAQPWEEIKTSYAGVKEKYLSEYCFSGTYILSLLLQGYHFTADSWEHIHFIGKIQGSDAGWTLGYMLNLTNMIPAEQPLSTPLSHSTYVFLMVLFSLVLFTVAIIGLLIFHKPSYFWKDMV

murine CD39 (CHO-moCD39) = biological target: T2, murine CD39 (CHO-moCD39) (mouse, UniProt P55772); experiment: FACS
T2 chain: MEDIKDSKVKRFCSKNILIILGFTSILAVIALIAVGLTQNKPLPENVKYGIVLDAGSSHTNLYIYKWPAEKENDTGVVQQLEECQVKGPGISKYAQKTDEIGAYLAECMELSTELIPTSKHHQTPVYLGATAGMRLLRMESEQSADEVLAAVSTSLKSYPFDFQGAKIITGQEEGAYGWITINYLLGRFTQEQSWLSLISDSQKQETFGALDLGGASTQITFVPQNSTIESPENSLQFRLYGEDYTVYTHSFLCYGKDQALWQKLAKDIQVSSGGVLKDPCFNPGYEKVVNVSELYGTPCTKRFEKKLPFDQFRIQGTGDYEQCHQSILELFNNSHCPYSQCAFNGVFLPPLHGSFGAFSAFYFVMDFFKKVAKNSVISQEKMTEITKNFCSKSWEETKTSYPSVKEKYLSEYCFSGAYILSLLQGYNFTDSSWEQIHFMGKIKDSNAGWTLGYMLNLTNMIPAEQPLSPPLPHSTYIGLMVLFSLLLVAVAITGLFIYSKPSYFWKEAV

CD39-L2 (ENTPD6) = biological target: T3, CD39-L2 (ENTPD6) (human, UniProt O75354); experiment: ELISA
T3 chain: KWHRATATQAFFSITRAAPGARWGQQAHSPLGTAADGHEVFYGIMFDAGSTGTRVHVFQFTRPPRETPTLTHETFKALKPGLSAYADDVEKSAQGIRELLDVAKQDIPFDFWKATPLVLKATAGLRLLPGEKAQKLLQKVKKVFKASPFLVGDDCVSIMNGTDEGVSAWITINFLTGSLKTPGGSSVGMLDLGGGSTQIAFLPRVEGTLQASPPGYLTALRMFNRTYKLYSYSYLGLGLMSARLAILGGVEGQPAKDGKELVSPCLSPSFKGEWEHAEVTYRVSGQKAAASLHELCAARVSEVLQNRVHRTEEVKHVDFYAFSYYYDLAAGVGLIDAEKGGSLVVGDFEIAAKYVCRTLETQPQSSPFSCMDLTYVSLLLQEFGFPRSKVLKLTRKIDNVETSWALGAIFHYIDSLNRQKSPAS

CD39-L1 (ENTPD2) = biological target: T4, CD39-L1 (ENTPD2) (human, UniProt Q9Y5L3); experiment: ELISA
T4 chain: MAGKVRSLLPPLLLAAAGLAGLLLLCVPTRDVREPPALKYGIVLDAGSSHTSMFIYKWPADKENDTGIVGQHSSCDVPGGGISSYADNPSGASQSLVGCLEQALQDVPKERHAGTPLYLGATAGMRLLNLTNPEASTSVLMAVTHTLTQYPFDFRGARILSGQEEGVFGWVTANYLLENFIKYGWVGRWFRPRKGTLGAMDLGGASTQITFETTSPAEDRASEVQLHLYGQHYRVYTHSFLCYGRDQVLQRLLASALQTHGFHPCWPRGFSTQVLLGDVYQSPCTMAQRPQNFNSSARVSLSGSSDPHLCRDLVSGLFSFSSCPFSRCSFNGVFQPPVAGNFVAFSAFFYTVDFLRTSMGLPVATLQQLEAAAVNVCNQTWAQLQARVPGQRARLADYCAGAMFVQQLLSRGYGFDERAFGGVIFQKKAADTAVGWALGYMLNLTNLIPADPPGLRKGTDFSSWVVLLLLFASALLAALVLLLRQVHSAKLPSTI

CD39-L4 (ENTPD5) = biological target: T5, CD39-L4 (ENTPD5) (human, UniProt O75356); experiment: ELISA
T5 chain: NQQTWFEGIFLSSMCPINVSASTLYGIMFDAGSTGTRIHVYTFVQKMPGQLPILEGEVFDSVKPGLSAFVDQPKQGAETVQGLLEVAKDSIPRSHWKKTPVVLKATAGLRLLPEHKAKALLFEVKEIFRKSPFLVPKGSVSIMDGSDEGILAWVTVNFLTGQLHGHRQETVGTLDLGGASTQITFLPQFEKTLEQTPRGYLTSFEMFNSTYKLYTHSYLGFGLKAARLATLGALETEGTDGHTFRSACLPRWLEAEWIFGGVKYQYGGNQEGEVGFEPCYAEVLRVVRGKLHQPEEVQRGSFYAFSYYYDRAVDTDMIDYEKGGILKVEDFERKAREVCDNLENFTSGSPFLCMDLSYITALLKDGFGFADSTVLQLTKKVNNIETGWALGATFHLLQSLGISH

CD39-L3 (ENTPD3) = biological target: T6, CD39-L3 (ENTPD3) (human, UniProt O75355); experiment: ELISA
T6 chain: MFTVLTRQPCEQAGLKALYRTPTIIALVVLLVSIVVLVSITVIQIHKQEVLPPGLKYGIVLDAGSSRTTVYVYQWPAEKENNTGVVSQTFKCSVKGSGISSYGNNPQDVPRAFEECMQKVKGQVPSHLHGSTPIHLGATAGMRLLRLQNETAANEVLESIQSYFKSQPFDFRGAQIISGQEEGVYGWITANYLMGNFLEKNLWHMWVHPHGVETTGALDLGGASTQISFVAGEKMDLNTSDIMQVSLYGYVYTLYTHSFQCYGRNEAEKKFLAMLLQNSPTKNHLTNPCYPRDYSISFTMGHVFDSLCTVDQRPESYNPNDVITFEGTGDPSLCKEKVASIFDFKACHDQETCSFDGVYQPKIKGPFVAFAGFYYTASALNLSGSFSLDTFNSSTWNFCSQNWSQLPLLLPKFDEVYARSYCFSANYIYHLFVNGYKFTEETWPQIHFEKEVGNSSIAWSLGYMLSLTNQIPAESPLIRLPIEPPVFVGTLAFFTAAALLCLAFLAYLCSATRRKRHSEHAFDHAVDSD

human CD39 (Ramos cells) [1] = biological target: T7, human CD39 (Ramos cells) (human, UniProt P49961); experiment: FACS, Ramos cells, first experiment
T7 chain: T1 chain with A138R, A139M, K142E

human CD39 (Ramos cells) [2] = biological target: T7, human CD39 (Ramos cells); experiment: FACS, Ramos cells, second experiment

binding result (CD39 mutant 19): no binding | binding result (murine CD39 (CHO-moCD39)): no binding | binding result (CD39-L2 (ENTPD6)): no binding | binding result (CD39-L1 (ENTPD2)): no binding | binding result (CD39-L4 (ENTPD5)): no binding | binding result (CD39-L3 (ENTPD3)): no binding | EC50 (human CD39 (Ramos cells) [1]): 0.16 µg/mL | EC50 (human CD39 (Ramos cells) [2]): 0.19 µg/mL
B1: I-394 (antibody, V domains shown)
VH: EVKLQQSGPELVKPGASVKMSCKASGYTFTDYNMHWVKQSPGRTLEWIGYIVPLNGGSTFNQKFKGRATLTVNTSSRTAYMELRSLTSEDSAAYYCARGGTRFAYWGQGTLVTVSA
VL: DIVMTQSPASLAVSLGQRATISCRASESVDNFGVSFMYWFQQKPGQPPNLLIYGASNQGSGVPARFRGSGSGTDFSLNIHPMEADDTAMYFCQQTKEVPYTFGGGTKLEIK
